Test results reported in patent publication US20250163181A1.

What was measured:
[1] = target: human prothrombin wild-type (human) (UniProt P00734); assay: SPR, AHP immobilised, HEPES buffer, 25 C
[2] = target: kringle-2 of human prothrombin (amino acids 156-271) (human) (UniProt P00734); assay: SPR, AHP immobilised, HEPES buffer, 25 C
[3] = target: prothrombin variant S91A/Y93A (human) (UniProt P00734); assay: SPR, AHP immobilised, HEPES buffer, 25 C
[4] = target: human prothrombin wild-type (human) (UniProt P00734); assay: SPR, calculated from Kd
[5] = target: kringle-2 of human prothrombin (amino acids 156-271) (human) (UniProt P00734); assay: SPR, calculated from Kd
[6] = target: prothrombin variant S91A/Y93A (human) (UniProt P00734); assay: SPR, calculated from Kd
[7] = target: human prothrombin wild-type (human) (UniProt P00734); assay: SPR, calculated from Kd; prothrombin with 200 µM argatroban
[8] = target: human prothrombin wild-type (human) (UniProt P00734); assay: SPR, AHP immobilised; prothrombin with 200 µM argatroban (open form)
[9] = target: human prothrombin wild-type (human) (UniProt P00734); assay: ELISA, antigen immobilised, Hill fit
[10] = target: kringle-2 of human prothrombin (amino acids 156-271) (human) (UniProt P00734); assay: ELISA, antigen immobilised, Hill fit
[11] = target: prothrombin variant S91A/Y93A (human) (UniProt P00734); assay: ELISA, antigen immobilised, Hill fit

## Antibody AHP (Prolytix AHP-5013)
[1]
  Kd: 38.3 nM
  koff: 0.000136 s⁻¹
  kon: 3540 M⁻¹ s⁻¹
[2]
  Kd: 27.8 nM
  koff: 0.000128 s⁻¹
  kon: 4600 M⁻¹ s⁻¹
[3]
  Kd: 19.5 nM
  koff: 0.000123 s⁻¹
  kon: 6320 M⁻¹ s⁻¹
[4]
  ΔG: -10.1 kcal/mol
[5]
  ΔG: -10.3 kcal/mol
[6]
  ΔG: -10.5 kcal/mol
[7]
  ΔG: -10.1 kcal/mol
[8]
  Kd: 37.4 nM
  koff: 0.000122 s⁻¹
  kon: 3270 M⁻¹ s⁻¹
[9]
  EC50: 0.195 µg/mL
[10]
  EC50: 0.249 µg/mL
[11]
  EC50: 0.185 µg/mL
